Laboratory results published in patent US20120329854.

B1: baculovirus expressed and purified GST-JARID1B (protein)
chain: MEAATTLHPGPRPALPLGGPGPLGEFLPPPECPVFEPSWEEFADPFAFIHKIRPIAEQTGICKVRPPPDWQPPFACDVDKLHFTPRIQRLNELEAQTRVKLNFLDQIAKYWELQGSTLKIPHVERKILDLFQLNKLVAEEGGFAVVCKDRKWTKIATKMGFAPGKAVGSHIRGHYERILNPYNLFLSGDSLRCLQKPNLTTDTKDKEYKPHDIPQRQSVQPSETCPPARRAKRMRAEAMNIKIEPEETTEARTHNLRRRMGCPTPKCENEKEMKSSIKQEPIERKDYIVENEKEKPKSRSKKATNAVDLYVCLLCGSGNDEDRLLLCDGCDDSYHTFCLIPPLHDVPKGDWRCPKCLAQECSKPQEAFGFEQAARDYTLRTFGEMADAFKSDYFNMPVHMVPTELVEKEFWRLVSTIEEDVTVEYGADIASKEFGSGFPVRDGKIKLSPEEEEYLDSGWNLNNMPVMEQSVLAHITADICGMKLPWLYVGMCFSSFCWHIEDHWSYSINYLHWGEPKTWYGVPGYAAEQLENVMKKLAPELFVSQPDLLHQLVTIMNPNTLMTHEVPVYRTNQCAGEFVITFPRAYHSGFNQGFNFAEAVNFCTVDWLPLGRQCVEHYRLLHRYCVFSHDEMICKMASKADVLDVVVASTVQKDMAIMIEDEKALRETVRKLGVIDSERMDFELLPDDERQCVKCKTTCFMSAISCSCKPGLLVCLHHVKELCSCPPYKYKLRYRYTLDDLYPMMNALKLRAESYNEWALNVNEALEAKINKKKSLVSFKALIEESEMKKFPDNDLLRHLRLVTQDAEKCASVAQQLLNGKRQTRYRSGGGKSQNQLTVNELRQFVTQLYALPCVLSQTPLLKDLLNRVEDFQQHSQKLLSEETPSAAELQDLLDVSFEFDVELPQLAEMRIRLEQARWLEEVQQACLDPSSLTLDDMRRLIDLGVGLAPYSAVEKAMARLQELLTVSEHWDDKAKSLLKARPRHSLNSLATAVKEIEEIPAYLPNGAALKDSVQRARDWLQDVEGLQAGGRVPVLDTLIELVTRGRSIPVHLNSLPRLETLVAEVQAWKECAVNTFLTENSPYSLLEVLCPRCDIGLLGLKRKQRKLKEPLPNGKKKSTKLESLSDLERALTESKETASAMATLGEARLREMEALQSLRLANEGKLLSPLQDVDIKICLCQKAPAAPMIQCELCRDAFHTSCVAVPSISQGLRIWLCPHCRRSEKPPLEKILPLLASLQRIRVRLPEGDALRYMIERTVNWQHRAQQLLSSGNLKFVQDRVGSGLLYSRWQASAGQVSDTNKVSQPPGTTSFSLPDDWDNRTSYLHSPFSTGRSCIPLHGVSPEVNELLMEAQLLQVSLPEIQELYQTLLAKPSPAQQTDRSSPVRPSSEKNDCCRGKRDGINSLERKLKRRLEREGLSSERWERVKKMRTPKKKKIKLSHPKDMNNFKLERERSYELVRSAETHSLPSDTSYSEQEDSEDEDAICPAVSCLQPEGDEVDWVQCDGSCNQWFHQVCVGVSPEMAEKEDYICVRCTVKDAPSRK
B2: purified recombinant active PKCµ (ProQinase) (protein)
chain: MSAPPVLRPPSPLLPVAAAAAAAAAALVPGSGPGPAPFLAPVAAPVGGISFHLQIGLSREPVLLLQDSSGDYSLAHVREMACSIVDQKFPECGFYGMYDKILLFRHDPTSENILQLVKAASDIQEGDLIEVVLSASATFEDFQIRPHALFVHSYRAPAFCDHCGEMLWGLVRQGLKCEGCGLNYHKRCAFKIPNNCSGVRRRRLSNVSLTGVSTIRTSSAELSTSAPDEPLLQKSPSESFIGREKRSNSQSYIGRPIHLDKILMSKVKVPHTFVIHSYTRPTVCQYCKKLLKGLFRQGLQCKDCRFNCHKRCAPKVPNNCLGEVTINGDLLSPGAESDVVMEEGSDDNDSERNSGLMDDMEEAMVQDAEMAMAECQNDSGEMQDPDPDHEDANRTISPSTSNNIPLMRVVQSVKHTKRKSSTVMKEGWMVHYTSKDTLRKRHYWRLDSKCITLFQNDTGSRYYKEIPLSEILSLEPVKTSALIPNGANPHCFEITTANVVYYVGENVVNPSSPSPNNSVLTSGVGADVARMWEIAIQHALMPVIPKGSSVGTGTNLHRDISVSISVSNCQIQENVDISTVYQIFPDEVLGSGQFGIVYGGKHRKTGRDVAIKIIDKLRFPTKQESQLRNEVAILQNLHHPGVVNLECMFETPERVFVVMEKLHGDMLEMILSSEKGRLPEHITKFLITQILVALRHLHFKNIVHCDLKPENVLLASADPFPQVKLCDFGFARIIGEKSFRRSVVGTPAYLAPEVLRNKGYNRSLDMWSVGVIIYVSLSGTFPFNEDEDIHDQIQNAAFMYPPNPWKEISHEAIDLINNLLQVKMRKRYSVDKTLSHPWLQDYQTWLDLRELECKIGERYITHESDDLRWEKYAGEQGLQYPTHLINPSASHSDTPETEETEMKALGERVSIL
B3: purified recombinant active PKCζ (ProQinase) (protein)
chain: MPSRTGPKMEGSGGRVRLKAHYGGDIFITSVDAATTFEELCEEVRDMCRLHQQHPLTLKWVDSEGDPCTVSSQMELEEAFRLARQCRDEGLIIHVFPSTPEQPGLPCPGEDKSIYRRGARRWRKLYRANGHLFQAKRFNRRAYCGQCSERIWGLARQGYRCINCKLLVHKRCHGLVPLTCRKHMDSVMPSQEPPVDDKNEDADLPSEETDGIAYISSSRKHDSIKDDSEDLKPVIDGMDGIKISQGLGLQDFDLIRVIGRGSYAKVLLVRLKKNDQIYAMKVVKKELVHDDEDIDWVQTEKHVFEQASSNPFLVGLHSCFQTTSRLFLVIEYVNGGDLMFHMQRQRKLPEEHARFYAAEICIALNFLHERGIIYRDLKLDNVLLDADGHIKLTDYGMCKEGLGPGDTTSTFCGTPNYIAPEILRGEEYGFSVDWWALGVLMFEMMAGRSPFDIITDNPDMNTEDYLFQVILEKPIRIPRFLSVKASHVLKGFLNKDPKERLGCRPQTGFSDIKSHAFFRSIDWDLLEKKQALPPFQPQITDDYGLDNFDTQFTSEPVQLTPDDEDAIKRIDQSEFEGFEYINPLLLSTEESV
B4: purified recombinant active PKCι (ProQinase) (protein)
chain: MSHTVAGGGSGDHSHQVRVKAYYRGDIMITHFEPSISFEGLCNEVRDMCSFDNEQLFTMKWIDEEGDPCTVSSQLELEEAFRLYELNKDSELLIHVFPCVPERPGMPCPGEDKSIYRRGARRWRKLYCANGHTFQAKRFNRRAHCAICTDRIWGLGRQGYKCINCKLLVHKKCHKLVTIECGRHSLPQEPVMPMDQSSMHSDHAQTVIPYNPSSHESLDQVGEEKEAMNTRESGKASSSLGLQDFDLLRVIGRGSYAKVLLVRLKKTDRIYAMKVVKKELVNDDEDIDWVQTEKHVFEQASNHPFLVGLHSCFQTESRLFFVIEYVNGGDLMFHMQRQRKLPEEHARFYSAEISLALNYLHERGIIYRDLKLDNVLLDSEGHIKLTDYGMCKEGLRPGDTTSTFCGTPNYIAPEILRGEDYGFSVDWWALGVLMFEMMAGRSPFDIVGSSDNPDQNTEDYLFQVILEKQIRIPRSLSVKAASVLKSFLNKDPKERLGCHPQTGFADIQGHPFFRNVDWDMMEQKQVVPPFKPNISGEFGLDNFDSQFTNEPVQLTPDDDDIVRKIDQSEFEGFEYINPLLMSAEECV

Legend:
[1] = target: H3K4me2T6ph peptide (H3 tail residues 1-20), P68431
[2] = target: H3K4me3T6ph peptide (H3 tail residues 1-20), P68431
[3] = target: H3K4me3 peptide (H3 tail residues 1-20), P68431
[4] = target: H3K4me2 peptide (H3 tail residues 1-20), P68431
[5] = target: histone H3 in untreated nucleosomes purified from HeLa cells, P68431

Row | Protein | demethylation assay, mass spectrometry [1] | demethylation assay, mass spectrometry [2] | demethylation assay, mass spectrometry [3] | demethylation assay, mass spectrometry [4] | phosphorylation of nucleosomes at H3T6 (in vitro kinase assay, Western blot with α-H3T6ph) [5]
1 | B1 | demethylation of tri- and dimethyl H3K4 peptides phosphorylated at T6 (H3K4me3T6ph and H3K4me2T6ph) is severely impaired | demethylation of tri- and dimethyl H3K4 peptides phosphorylated at T6 (H3K4me3T6ph and H3K4me2T6ph) is severely impaired | Recombinant, purified JARID1B (FIG. 9) efficiently demethylates H3K4me3 and H3K4me2 peptides | Recombinant, purified JARID1B (FIG. 9) efficiently demethylates H3K4me3 and H3K4me2 peptides | 
2 | B2 |  |  |  |  | only PKCα, 131 and 132 phosphorylate nucleosomes at H3T6 (PKCµ tested, no phosphorylation)
3 | B3 |  |  |  |  | only PKCα, 131 and 132 phosphorylate nucleosomes at H3T6 (PKCζ tested, no phosphorylation)
4 | B4 |  |  |  |  | only PKCα, 131 and 132 phosphorylate nucleosomes at H3T6 (PKCι tested, no phosphorylation)
